assay: soluble on expression in E. coli; label from the status in PepcDB or PDB records

| Sequence | soluble on expression in E. coli |
| --- | --- |
| MRTNVRLLAYRLLRKYEKEKFISREDVDSVLSFLDDRDRRFFKELVWGVVRKEELLDWYINQLLKKKDIPPAVRVALRMGAYQLLFMNSVPDYAAVSETVKLVKNENFKKLVNAVLRRLRTVPEPKELHLVYSHPEWIVNYWRSFLPEEAVLRIMKWNQEPLPVMLRVNSLAATKEEVIKILAEEGTEAVPGKHAPFSLIVRKLGVPMNDSRVINDGLASVQGESSQLVPFFMELRPGLRVLDTCAAPGGKTTAIAELMKDQGKILAVDISREKIQLVEKHAKRLKLSSIETKIADAERLTEYVQDTFDRVLVDAPCTSLGTARNHPEVLRRVNKEDFEKFSEIQLRMVQQAWQLLEKGGILLYSTCTVTKEENTEVVKRFVYEQKDVEVIDIRDKMKEFEVEGIWDGYGFLMLPDETITPFYISVLRKMG | soluble |
| MCHNGRMESLSLSHHFLIAMPGMGDPLFAKSLVYLCEHGEHGAMGLIINKPSGIAMAQLFDQIDLPLDDEDTRTGLVYFGGPVQPDRGFVLHQPAGNWQSSLMVTDDIALTTSKDVLVAVSEGKKPEQLLISLGYAGWSAGQLEKEIADNGWLTVPAEPSIVFDLPYEERYDAAMALLGFDPSLLSSDVGHALEHHHHHH | soluble |
| MSDSQTLVVKLGTSVLTGGSRRLNRAHIVELVRQCAQLHAAGHRIVIVTSGAIAAGREHLGYPELPATIASKQLLAAVGQSRLIQLWEQLFSIYGIHVGQMLLTRADMEDRERFLNARDTLRALLDNNIVPVINENDAVATAEIKVGDNDNLSALAAILAGADKLLLLTDQKGLYTADPRRNPQAELIKDVYGIDDALRAIAGDSVSGLGTGGMSTKLQAADVACRAGIDTIIAAGSKPGVIGDVMEGISVGTLFHAQATPLENRKRWIFGAPPAGEITVDEGATAAILERGSSLLPKGIKSVTGNFSRGEVIRICNLEGRDIAHGVSRYNSDALRRIAGHHSQEIDAILGYEYGPVAVHRDDMITR | not soluble |
| MKIDASRRGILTGCWRKASNGIRPPWSGDESHFLTHCTRCDACINACENNILQRGTGGYPSVNFKNNECSFCYACAQACPESLFSPRHTRAWDLQFTIGDACLAYQSVECRRCQDSCEPMAIIFRPTLSGIYQAQLNSQLCNGCGACAASCPVSAITAEYLHAH | not soluble |
| MGSDKIHHHHHHMHMQSPIQRRKSRQIHVGHVPVGGDAPIAVQSMTNTDTLDVDATVAQIRQLEAAGADIVRVSVPTMDAAEAFGQIKRQVSVPLVADIHFDYKIALRVAELGVDCLRINPGNIGREDRVRAVVDAARHHGIPIRIGVNAGSLEKDLQKKYGEPTPEALVESAMRHIEHLDRLDFQDFKVSVKASDVFMAVAAYRQLAQRIDQPLHLGITEAGGLRSGTVKSSIGLGLLLMEGIGDTIRVSLAADPVEEIKVGYDMLKSLRLRSKGINFIACPSCSRQNFDVIGTMNALEERLDDIMTPLDVSVIGCVVNGPGEAKESDIGLTGGDPANLVYIDGKPASKLRNDHLVDDLEALIRDKVREKEARERDTIAREA | not soluble |
| MAHHHHHHMATVGDPLFRIHEPTYAFLDCSACIAFAGHLGRRMNESIRYGGRGGATFLSSHRLGKDNKLKRRDYATSELRGAEVLEKICNDSLFDDYALHFRADMRIRVYDNGESEYPLAQHYSKEDSRILKAVKTKAVHVFCTRVMDEEEDAMTSLVREVELLSELEQRLCGGYLEMRNITAPPFPVEKAVTAVCVGVEPSIEAEVRRLEKYEKWQASISKGTSQDKMKGAEGAESVVVKGVQYSKDDPLSFTVLRKPNAKSNGDTTEGGSDAAEDVRKQPDKDSVFMNFDL | not soluble |
| SETQKTQAENPPKPATSSCRKKTKDDANFLEDVKDHIDDFINASMDDHKNCFNKTIKKMFGLSKAVADKQQSEAKGGVESYLPLQTTVSD | soluble |
| MGSDKIHHHHHHMKHTLLIKDWLYSFLSLWFPRCCVVCGGSLAKGEECICTMCNINLPRTDYHLRKDNPVEKLFWGKFPLERATSFFFYRKGSDFRQVLHQLKYGGQKEIGAIMGRYMASELQASDFFHGVDVIIPIPLHKKKQQIRGYNQSEWISRGIMAVTGIPVDTEAIIRRKNTETQTQKSALERWENVDGIFELHRSEYLAGKHILIVDDVLTTGATTVACASRLAEIEGVRISVLTLAMAE | not soluble |
| MQTRATPAPAAPLERFNAAPAEEAAGTLLACLHSRAWADRLVAHRPYPDLPALLAAADEAAYDLSSDDLSEALAAETLPALPEDTYAAAHTALSAAHAAYESRFGHVFVISLDGLSPEETLNHVLAAIRSRLANDPDEERLVASEELRRLAGGRVRRLLGARGTARPATDDPHPANHTKPPPPLEHHHHHH | soluble |
| MGSDKIHHHHHHIEAQIKEDLDLIRNGTSLLSLIPNFGMEAVTPWLDEFERGLMYELDFKREIKNIAFFRDMYRDRDDVKIPRPYSRLSTEDVIVMDYTPSVPIVRPFKAERLINMFLEQLLYEGVIHGDLHTGNIGLDSKTGSLVLYDFGNIINITSQYKTAIRDFVYGVQTGNVDAVMDNMVKMGMNVRDREVTRIFVKQYFDYLQTLDLTSFTINSPEIREKASKVPVELDSTTLTILRTYSLLEGLAKELDPSFSYARIINKNVELLFLDLEYIMYRIQKDTSS | not soluble |
| LGKQIMFDAFRFKCPPQELNAAIIKQLRGLLDLGIGEIKARAEKQEALLEYPIFFNDWQDNKKIIRNLLDRISADQLPLEIYRYTTFEDGSVLEEQLTLKEANEALTALQRIELEQDMLSQLEAGHISSRDEYVPDDEDV | not soluble |
| GPGSMPSPLVLTRAAPARGLNVKMFDRKVKGLQRSFVSSPACDLHKLCAQQMLDRRTFVKRDTPVVLEVGAHTGWYLRHMIERKEFHGLKQYIQTDISEDRLNRNYEEIKNIIPPEVEFVQICCDEEQPSPFGIPDKSVDMVVSCLSMHWVNDLETSMVNVRKVLKRDGFFLNAMFGGNTLYELRGCFSMAQTETLGGVSPHVSPMIDGAGLSTLVLQAGFNIPTIDLDRHLLLYETPFHLMEHLAVMGESACHYMRQPMKRDVLLCACAIYDTMYKQNGLFPATFEVFHTIAWSPSPTQAKPLARGSGQIPLSSWNSKSRKQLQSVLDEYALNPNDEVLQNKAEDIFKKLREESAELMAKKGLDSRGFERDRDEEARRLDEKPVPPFQ | not soluble |
| NATQINEELYRLLEDTEILNQEITEGLLKGFEVPDAGVAIQLSKRDVVYPARILIIVLSEMWRFGLTKQSESFLAQVLTTIQKVVTQLKGNDLIPSGVFWLANVRELYSFVVFALNSILTEETFKNGMTDEEYKEYVSLVTELKDDFEALSYNIYNIWLKKLQKQLQKKAINAVVISESLPGFSAGETSGFLNKIFANTEEYTMDDILTFFNSIYWCMKSFHIENEVFHAVVTTLLNYVDAICFNELIMKRNFLSWKRGLQLNYNVTRLEEWCKTHGLTDGTECLQHLIQTAKLLQVRKYTIEDIDILRGICYSLTPAQLQKLISQYQVADYESPIPQEILRYVADIVKKEAALSSSGNDSKGHEHSSSIFITPETGPFTDPFSLIKTRKFDQVEAYIPAWLSLPSTKRIVDLVAQQVV | soluble |
| MENGCGKMESFSPQALEMIRSLGTTHIWYIGMLEQATQTNYSDAGILPCHPEIVKGKAGSPYAVRDYYDVSPELATNIPNRMAEFHDLIERTHRAGMGVIMDFVPNHVAREYRSDVKPSGTKDLGEEDDPLVAFSPNNNFYYLPGKCLELDFGERSRTMMPYHEEPARATGNDRFSSHIDKEDWYETVKLNYGIDYLNGGSKHFDPLPDTWIRMRDILLFWASKGIDGFRCDMAEMVPVKFWEWAIPQIRERHSVLFIAEIYRPELYESYLQAGFDYLYDKVGMYDCLRTVICGYGSASDISRVVRQTERFADNMLYFLENHDEQRIASDFFAEDARKALPAVTIAATIGRNPFMLYFAQELGERGMDAEGFSGKDGRTTIFDYWSLDKMQRRINDGRYDTTMLSEEERLLLQSYTRLLHDVCALPSVIQGSFYDLGYANQNNPYFRPNREFAFLRHTTDEILLVAANFAPHEAEIRVIIPEHAFQTMQIKDNAAFLLTDMLSGENSIGCLTQYAPYPLHLPAYGYALHRFRPL | not soluble |
| MEQQRDFDSALAWHRKAKCAGKAGSADVLPGHDKDANAARVVELCAMCADCPVFEQCGREAIAEPFLTLGVVRAGIPDTTQSKSKQKKLLQQVIDEGVPPPVALIMALKDRKGYEGALVGLAGLYEAYRGVYV | not soluble |
| MTSITPSIQFFAGIFEELSNVSLRREVRTGKRIVMMKFNQLQAIEGFNSFTKQSLNSLLLTDEEGEISVTPSATRFIFGGDEGDELQGVECKFEVERDDHWERFMRFMNRYAEANDMEYGERLEHHHHHH | soluble |
| MGSDKIHHHHHHMAIILGGMVPRPPWKYRLLAAIHAHRNAGDPGADPLVRRAVERLVAVTSRVVFGVEKPGWITSGASEGNLLALYTLREEGYRRVVAFDTSHYSIKKSALTLSMELDLLPTHGGRPRLDLLERRITPDSVVVATVGTTQEGLVDPVEEIAGVAESVGAAVHVDAAYGGYIARFLTGKARFRLEPPVMTVVVDAHKIPEAPPPAGVILASKQKLLDNLWFESPYIPTGRQFGILGTRPGGPIVAAWRRVEDLERNPGFPRLASILMRRLRKTLKALERLGYETPVTPDLPVACATHPRLGEVLERLKASGVRVYRCRSPKPCLHVTNYGRLCRARLGSSRSPRGCLRKPLGASLGNPGVTGLGL | not soluble |
| MWKLQSPHSCVPMLVWDCSLHPPSQYCSPLFETAVAENINRLSSHCIKKKSIQRGEKMKKILKLLSCIVVLTIAGCLNQPPPSTLALWEKPGADKAMTQQALTKCGWKPVYASPDDMNSYASEFASVYECMKKAGFRYKLQDSKGIYFSPPAKSSSFLSNLMVAGYQQFMENESFGVSNSTKHERELMLRIEKEKKRQKTKKSLQR | not soluble |
| MLSTSASLYLNELINEMRQLSETPIDCKNARMLLSKEISKVFDELYRHGQGFIDNGYGSDYNKNDFYSPHSANSGYSASPFPSRPSLPNHALSTSFYHNSFMTPIRNGRMRSPDQDLGDWSREKINDTQHVLQTKVYIPEPPVSIDGKKVKCNYIGRILGPSGMSARMIENQYDVTLLIRGAGSVRNKAMDERVRKRNEHLEEPLHVLLIARHNDKTKCEEILNKAAEKIESLLTPIHDEYKMDQLVSYAKMNGTYQERPKRKSQLDEQSHSNYWAPH | not soluble |
| MSLDVINKYGTPLKLSYLPKISSQIQKAKQWFGEAITNNNYSGTYTYCYCTKSSHFSFVLNEALKNDIHIETSSAYDIPIVRILFENNKITKATNVICNGYKRPEYTDYICDLINEGFNCTPILDNLDEITAYEKGIETSCNLGIRLATDEEPKFEFYTSRLGFRYNDVVQFYKEKIEPNPKFKLKMLHFFINTGIKDTTYYWSELSRFVHMYCTMKKINPDMDSIDIGGGWPIKTSVHFEYDYKYMADQIVKTIKKVCDEEGVPTPNIFTEFGSFTVGESGAAVYSVLGSKLQNDKEEWYMIDSSFITTLPDVWGLSQKYLLLAVNGWDKPYKKVKLGGITCDSMDYYNSEAHQNLVFMPELDEKEPTYIGFFHTGAYQESLGGYGGIQHCLVPAPKHILIDKDADGNFSYNLFAPEQTKESMLKILGYKAEGHHHHHH | soluble |

From the DeepSol protein solubility set
